Measured values published in the Human Domainome abundance scans (Beltran et al. 2025).
± gives the uncertainty stated by the source.

B1: Chromodomain-helicase-DNA-binding protein 4, residues 365 to 417; numbered along this chain, Q14839 (parent)
chain: YETDHQDYCEVCQQGGEIILCDTCPRAYHMVCLDPDMEKAPEGKWSCPHCEKE

Variants of: B1
Assay: abundance fitness (aPCA) (normalised: wild type 0, dead -1); higher = more abundant; growth selection in yeast, the domain comes from the species named
Settings: Homo sapiens

Variant | abundance fitness
L20N | -0.083 ± 0.14
L20R | 0.113 ± 0.089
L20H | 0.143 ± 0.17
L20F | -0.096 ± 0.17
L20W | -0.146 ± 0.12
L20V | -0.028 ± 0.1
L20A | 0.08 ± 0.1
L20E | 0.01 ± 0.12
L20M | -0.011 ± 0.14
L20I | 0.023 ± 0.15
L20T | 0.036 ± 0.13
L20P | 0.149 ± 0.12
L20C | -0.045 ± 0.12
L20S | -0.013 ± 0.096
L20D | 0.178 ± 0.12
C9M | -0.562 ± 0.14
C9G | -0.825 ± 0.094
C9A | -0.929 ± 0.11
C9D | -0.777 ± 0.16
C9F | -1.09 ± 0.21
C9H | -0.739 ± 0.22

Variant | abundance fitness
C9V | -1.01 ± 0.11
C9L | -0.717 ± 0.096
C9P | -0.712 ± 0.16
C9I | -0.868 ± 0.17
C9S | -0.676 ± 0.099
C9T | -0.791 ± 0.14
C9Q | -0.845 ± 0.14
C9Y | -1.02 ± 0.12
C9R | -0.678 ± 0.11
C9E | -0.943 ± 0.15
Y8W | -0.107 ± 0.14
Y8G | -0.291 ± 0.08
Y8L | 0.031 ± 0.1
Y8M | 0.011 ± 0.12
Y8A | -0.052 ± 0.09
Y8T | 0.221 ± 0.11
Y8H | 0.481 ± 0.15
Y8Q | 0.427 ± 0.12
Y8D | -0.269 ± 0.13
Y8V | -0.124 ± 0.088
Y8N | -0.13 ± 0.28

Variant | abundance fitness
Y8P | 0.033 ± 0.11
Y8C | -0.222 ± 0.18
Y8I | -0.099 ± 0.17
Y8E | -0.109 ± 0.11
Y8F | 0.471 ± 0.29
Y8R | 0.155 ± 0.098
D7C | -1.06 ± 0.33
D7E | 0.015 ± 0.11
D7Q | 0.119 ± 0.19
D7Y | -0.003 ± 0.21
D7G | 0 ± 0.092
D7I | -0.458 ± 0.22
D7P | -0.29 ± 0.24
D7W | -0.346 ± 0.14
D7A | -0.095 ± 0.1
D7K | -0.075 ± 0.2
D7R | -0.005 ± 0.11
D7N | -0.183 ± 0.11
D7T | 0.067 ± 0.15
D7F | -0.544 ± 0.26
D7S | 0.037 ± 0.12

Variant | abundance fitness
D7H | -0.51 ± 0.48
D7V | -0.19 ± 0.11
D7M | -0.037 ± 0.19
Q13C | -0.045 ± 0.14
Q13V | -0.018 ± 0.1
Q13W | -0.255 ± 0.12
Q13S | 0.008 ± 0.11
Q13I | -0.208 ± 0.24
Q13T | -0.015 ± 0.14
Q13P | -0.702 ± 0.17
Q13Y | -0.117 ± 0.18
Q13N | 0.255 ± 0.16
Q13L | -0.091 ± 0.11
Q13H | -0.135 ± 0.18
Q13A | 0.206 ± 0.12
Q13E | -0.036 ± 0.13
Q13D | 0.12 ± 0.33
Q13K | -0.474 ± 0.18
Q13M | 0.156 ± 0.15
Q13G | 0.037 ± 0.09
Q13F | -0.063 ± 0.23
